In patent US20220289857A1 (Kyowa Kirin, published 2022):
“And” between values parts separate entries of the source, which are not always exact repeats. Equal entries are not always repeated.

Tests used:
[1] = molecular target: T1, untagged human Fn14 extracellular domain (aa 28-75), SUMO-cleaved (human, UniProt Q9NP84 28-75); experiment: co-crystal structure
T1 construct: Electron density seen for residues 32-68; also called Fn14 (crystallization)
Method: Purified Fn14 and His-tagged 41c Fab or R35B9 Fab proteins were mixed in a 1:1 stoichiometric ratio, concentrated to 1 mg/mL and then subjected to crystallization. Initial crystallization trials were performed in a 96-well format using a nano-liter dispensing liquid handling robot (Phoenix, Art Robbins Ltd.) while mixing 0.15 μL protein with 0.15 μL precipitant from different commercially available crystallization screens (JCSG core+and JCSG core 1 screens). Over 200 crystallization conditions were tested using the sitting drop vapor diffusion method and crystallization trails were carried out at both 4° C. and 22° C. Optimization of all crystallization conditions was performed manually by both hanging drop and sitting drop methods. Crystals were obtained in various conditions containing PEG 3350 or PEG 6000 as the common precipitant and were grown over 3 days. […]
The structure had good geometry with 4 residues (0.89%) as outliers and 97.6% residues in favored region of the Ramachandran plot. Correspondingly, the structure of Fn14 -R35B9-His Fab complex was determined by molecular replacement using the phase information obtained from Fn14-41c-His Fab complex and the structure was refined to 2.3 Å with residual factors R/Rfree=20.9/23.3.

[2] = molecular target: T2, His-SUMO-huFn14 (soluble human Fn14 aa 28-75 with N-terminal 6xHis-SUMO tag) (human); experiment: SPR Biacore T200; His-SUMO-huFn14 amine-coupled, Fab analyte; 1:1 fit
T2 construct: also called His-SUMO-Fn14; His-SUMO-hFn14
Method: (§1) In order to kinetically analyze the binding activity of anti-Fn14 mouse antibodies 41c, R35B9, and CRCBT-06-002 to recombinant human and cynomolgus macaque Fn14 proteins, the binding activity was measured by surface plasmon resonance method (SPR). Antibodies were generated as described herein. All of the following procedures were carried out using a Biacore T200 (GE Healthcare Bio-Sciences). To determine antibody affinity to human Fn14, recombinant human His-SUMO-Fn14 was immobilized on a CMS sensor chip (GE Healthcare Bio-Sciences) by amine coupling chemistry. In particular, the kinetic assay was carried out by immobilizing on the chip approximately 20-30 RU of recombinant protein, in order to achieve a low protein immobilization level. To determine antibody affinity to cynomolgus macaque Fn14, polyclonal anti-GST antibodies were immobilized on a CMS sensor chip (GE Healthcare Bio-Sciences) by amine coupling chemistry. In particular, after immobilizing approximately 1500 RU of anti-GST capture antibody onto the chip, cynomolgus macaque GST-Fn14 in culture supernatant was allowed to run for 5 minutes at a flow rate of 30 μL/min in order to achieve a low capture level of approximately 20 RU. Thereafter, antibody Fab fragments, serially diluted from a high concentration, were allowed to run at a flow rate of 30 μL/min onto the chip for 300 seconds. The dissociation time was 1800 seconds and the binding curves were measured at 25° C. Regeneration was performed with 10 mM glycine pH 1.5 for 30 seconds. The raw data were double referenced by subtraction of the signals from a reference flow cell without immobilized ligand and a buffer blank.
(§2) A sensorgram corresponding to each concentration was obtained (see FIG. 5). Analysis was carried out using a 1:1 Langmuir fit model using the analysis software attached to the apparatus, Biacore T200 Evaluation software (Biacore), thereby calculating an association rate constant ka [M-1s-1] and a dissociation rate constant kd [s-1] for the recombinant Fn14 proteins. […] Cross-reactivity of anti-Fn14 mouse antibodies to recombinant mouse GST-Fn14 protein was measured as described above.

[3] = molecular target: T3, cynomolgus macaque Fn14-GST (cynomolgus macaque (Macaca fascicularis)); experiment: SPR Biacore T200; cyno Fn14-GST captured by anti-GST, Fab analyte; 1:1 fit
T3 construct: Used from culture supernatant, captured by anti-GST; also called cyno Fn14-GST; CynoFn14
Method: as §1, §2

[4] = molecular target: T2, His-SUMO-huFn14 (soluble human Fn14 aa …); experiment: SPR Biacore T200; His-SUMO-huFn14 amine-coupled, Fab analyte; average of two runs
Method: (§3) In order to kinetically analyze the binding activity of anti-Fn14 mouse antibodies 41c, R35B9, and CRCBT-06-002 to recombinant human and cynomolgus macaque Fn14 proteins, the binding activity was measured by surface plasmon resonance method (SPR). Antibodies were generated as described herein. All of the following procedures were carried out using a Biacore T200 (GE Healthcare Bio-Sciences). To determine antibody affinity to human Fn14, recombinant human His-SUMO-Fn14 was immobilized on a CMS sensor chip (GE Healthcare Bio-Sciences) by amine coupling chemistry. In particular, the kinetic assay was carried out by immobilizing on the chip approximately 20-30 RU of recombinant protein, in order to achieve a low protein immobilization level. To determine antibody affinity to cynomolgus macaque Fn14, polyclonal anti-GST antibodies were immobilized on a CMS sensor chip (GE Healthcare Bio-Sciences) by amine coupling chemistry. […] The dissociation time was 1800 seconds and the binding curves were measured at 25° C. […]
(§4) A sensorgram corresponding to each concentration was obtained (see FIG. 5). […] Cross-reactivity of anti-Fn14 mouse antibodies to recombinant mouse GST-Fn14 protein was measured as described above.

[5] = molecular target: T3, cynomolgus macaque Fn14-GST; experiment: SPR Biacore T200; cyno Fn14-GST captured by anti-GST, Fab analyte; average of two runs
Method: as §3, §4

mouse Fn14-GST = molecular target: T4, mouse Fn14-GST (mouse); experiment: SPR (Biacore T200); mouse Fn14-GST captured by immobilized anti-GST antibody, analyte at 10 nM
T4 construct: also called mouse GST-Fn14
Method: as §3, §4

[6] = molecular target: T5, human Fn14 (full length) on cells (human, UniProt Q9NP84 28-129); experiment: cell-based or functional assay
T5 sequence: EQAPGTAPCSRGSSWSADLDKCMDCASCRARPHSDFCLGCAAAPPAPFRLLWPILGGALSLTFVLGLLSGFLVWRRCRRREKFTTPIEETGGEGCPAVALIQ

[7] = molecular target: T6, human Fn14 Subdomain 2 peptide (AA51-70), biotinylated (human, added C-terminal Lys carries Ahx-biotin; C-terminal amide); experiment: biolayer interferometry (ForteBio Octet); biotinylated peptide on streptavidin biosensor, response at 120 s of association
T6 peptide: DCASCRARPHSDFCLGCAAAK
Method: (§5) A ForteBio Octet Qke instrument (ForteBio) was used to measure the ability of purified antibodies to bind Fn14 peptides. The assays were performed at 30° C. in 96-well half area plates (Grenier, cat# 675076), with agitation set to 1000 rpm, in kinetic buffer (provided in the assay kit) to minimize nonspecific interactions. Biosensor tips were equilibrated in kinetic buffer for 600 s prior to use. Soluble biotinylated peptides (20 μg/ml, Subdomain 1 (AA30-50): […]-[K-Ahx-biotin]-amide (SEQ ID NO: 182) and Subdomain 2 (AA51-70): […]-[K-Ahx-biotin]-amide (SEQ ID NO: 183) synthesized by 21′ Century Biochemicals) in kinetic buffer were immobilized on streptavidin-coated biosensors (ForteBio, cat# 18-5020) for 300 seconds. […] Purified antibodies (20 μg/m1) were allowed to bind the immobilized peptides. Association was measured for 300 seconds, using the high sensitivity kinetics setting. To characterize the binding properties of the antibody candidates, the response (nm) at t =120 seconds from the start of the association step was recorded. All values were compared to a control sample (isotype antibody).

[8] = molecular target: T7, human Fn14 Subdomain 1 peptide (AA30-50), biotinylated (human, added C-terminal Lys carries Ahx-biotin; C-terminal amide); experiment: biolayer interferometry (ForteBio Octet); biotinylated peptide on streptavidin biosensor, antibody in solution, response at 120 s of association
T7 peptide: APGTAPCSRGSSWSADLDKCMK
Method: as §5

T2 sequence (chain, as listed by the source limits assumed): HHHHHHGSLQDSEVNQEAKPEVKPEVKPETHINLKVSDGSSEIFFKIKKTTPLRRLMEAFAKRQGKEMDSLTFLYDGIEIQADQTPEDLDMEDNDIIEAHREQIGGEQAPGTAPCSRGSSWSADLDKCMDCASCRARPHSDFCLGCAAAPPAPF
T3 sequence (chain, as listed by the source): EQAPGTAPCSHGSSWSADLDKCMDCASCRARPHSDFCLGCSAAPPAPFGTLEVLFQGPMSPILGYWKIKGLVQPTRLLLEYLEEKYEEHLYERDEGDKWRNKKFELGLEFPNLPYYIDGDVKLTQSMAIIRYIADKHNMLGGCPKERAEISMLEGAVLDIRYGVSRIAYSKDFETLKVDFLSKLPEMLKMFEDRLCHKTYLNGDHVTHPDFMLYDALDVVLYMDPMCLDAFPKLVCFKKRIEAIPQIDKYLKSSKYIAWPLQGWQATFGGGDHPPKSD

B1: 41c-His Fab (recombinant, bacterial, for crystallization) (Fab, V domains shown)
VH: EVQLQQSGPELVKPGASVKMSCKASGYTFTDYNMHWVKQSHGKSLEWIGYINPNNGGTNYNQKFKGKATLTVNKSSRSAYMEFRSLTSEDSAVYYCASSGWFTYWGQGTLVTVSA
VL: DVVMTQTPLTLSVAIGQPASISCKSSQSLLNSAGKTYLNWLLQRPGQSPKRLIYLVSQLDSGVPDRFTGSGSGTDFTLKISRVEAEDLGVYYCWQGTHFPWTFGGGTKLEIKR
notes: Two extra N-terminal residues on each chain (Leu-Glu heavy, Ser-Arg light); C-terminal linker and 6xHis on the heavy chain; also called His-tagged 41c Fab
Q: Does B1 bind [1]?
A: Result: binds

B2: R35B9 Fab (enzymatic digest of the mouse IgG1 antibody) (Fab, V domains shown, not shown: a dimerising Fc or GST)
VH: EVQLQQSGPELVKPGASVKMSCKASGYIFQDYNMHWVKQSHGKSLEWIGSINPRNGWTNYNQKFKGKATLTVNKSSRSAYMEFRSLTSEDSAVYYCASSGWFTYWGQGTLVTVSA
VL: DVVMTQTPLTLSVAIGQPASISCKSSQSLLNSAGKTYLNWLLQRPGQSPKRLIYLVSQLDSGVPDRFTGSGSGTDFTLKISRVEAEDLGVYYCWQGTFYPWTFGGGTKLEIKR
notes: Made with the mouse IgG1 Fab and F(ab')2 preparation kit; also called R35B9 Fab LM042817
Q: With B2 as the binder, how does the Kd [2] read?
A: Its Kd is 0.205 nM and 0.21 nM.

Q: And the koff [2]?
A: Its koff is 0.00063 s⁻¹ and 0.000427 s⁻¹.

Q: What about the kon [2] of the same binder?
A: Its kon is 3.07e+06 M⁻¹ s⁻¹ and 2.03e+06 M⁻¹ s⁻¹.

Q: And the Kd [3]?
A: The Kd was 0.235 nM and 0.222 nM.

Q: And the koff [3]?
A: The koff was 0.000342 s⁻¹ and 0.00038 s⁻¹.

Q: And the kon [3]?
A: Its kon is 1.46e+06 M⁻¹ s⁻¹ and 1.71e+06 M⁻¹ s⁻¹.

Q: What about the Kd [4] of the same binder?
A: Its Kd is 0.208 nM.

Q: What about the Kd [5] of the same binder?
A: Its Kd is 0.229 nM.

Q: Does B2 bind (mouse Fn14-GST)?
A: Result: binds

B3: 41c Fab (enzymatic digest of the mouse IgG1 antibody) (Fab, V domains shown, not shown: a dimerising Fc or GST)
VH: EVQLQQSGPELVKPGASVKMSCKASGYTFTDYNMHWVKQSHGKSLEWIGYINPNNGGTNYNQKFKGKATLTVNKSSRSAYMEFRSLTSEDSAVYYCASSGWFTYWGQGTLVTVSA
VL: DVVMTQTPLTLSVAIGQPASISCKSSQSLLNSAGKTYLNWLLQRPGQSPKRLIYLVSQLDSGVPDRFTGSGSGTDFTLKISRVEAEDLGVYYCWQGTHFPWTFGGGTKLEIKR
notes: Made with the mouse IgG1 Fab and F(ab')2 preparation kit; also called 41C Fab LM101416
Q: With B3 as the binder, how does the Kd [2] read?
A: The Kd was 2.15 nM and 1.81 nM.

Q: What about the koff [2] of the same binder?
A: Its koff is 0.00242 s⁻¹ and 0.00266 s⁻¹.

Q: And the kon [2]?
A: The kon was 1.13e+06 M⁻¹ s⁻¹ and 1.47e+06 M⁻¹ s⁻¹.

Q: What about the Kd [3] of the same binder?
A: The Kd was 3.48 nM and 3.28 nM.

Q: What about the koff [3] of the same binder?
A: The koff was 0.00153 s⁻¹ and 0.00223 s⁻¹.

Q: What about the kon [3] of the same binder?
A: The kon was 441000 M⁻¹ s⁻¹ and 678000 M⁻¹ s⁻¹.

Q: And the Kd [4]?
A: The Kd was 1.98 nM.

Q: And the Kd [5]?
A: The Kd was 3.38 nM.

Q: Does B3 bind (mouse Fn14-GST)?
A: Result: binds

B4: R35B9 mouse IgG1(D265A), kappa antibody (A402/A403) (antibody)
heavy: EVQLQQSGPELVKPGASVKMSCKASGYIFQDYNMHWVKQSHGKSLEWIGSINPRNGWTNYNQKFKGKATLTVNKSSRSAYMEFRSLTSEDSAVYYCASSGWFTYWGQGTLVTVSAAKTTPPSVYPLAPGSAAQTNSMVTLGCLVKGYFPEPVTVTWNSGSLSSGVHTFPAVLESDLYTLSSSVTVPSSPRPSETVTCNVAHPASSTKVDKKIVPRDCGCKPCICTVPEVSSVFIFPPKPKDVLTITLTPKVTCVVVAISKDDPEVQFSWFVDDVEVHTAQTQPREEQFNSTFRSVSELPIMHQDWLNGKEFKCRVNSAAFPAPIEKTISKTKGRPKAPQVYTIPPPKEQMAKDKVSLTCMITDFFPEDITVEWQWNGQPAENYKNTQPIMNTNGSYFVYSKLNVQKSNWEAGNTFTCSVLHEGLHNHHTEKSLSHSPGK
light: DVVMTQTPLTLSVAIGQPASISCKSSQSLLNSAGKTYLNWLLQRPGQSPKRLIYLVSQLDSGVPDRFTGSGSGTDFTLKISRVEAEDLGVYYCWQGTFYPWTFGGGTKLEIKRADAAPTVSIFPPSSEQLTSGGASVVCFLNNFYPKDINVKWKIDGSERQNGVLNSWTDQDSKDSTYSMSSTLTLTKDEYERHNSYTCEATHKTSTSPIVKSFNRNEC
Q: Which “ICAM-1 MFI on HRMC, 250 ng/mL rhTWEAK, mAb 0.1 µg/mL” value [6] does the source give for B4 here?
A: The value was 5830 MFI.

Q: Does B4 bind [7]?
A: Result: no binding (tested: 20 µg/mL)

Q: Does B4 bind [8]?
A: Result: binds
